# Measurements reported in patent US20200024330A1.
# Key:
# Test in all cases: cell-based or functional assay
# [1] = target: HIV-1 Env of isolate MGRM-D-022 (HIV-1)
# [2] = target: HIV-1 Env of isolate MGRM-G-001 (subtype G) (HIV-1)
# [3] = target: HIV-1 Env of isolate MGRM-D-018 (HIV-1)
# [4] = target: HIV-1 Env of isolate MGRM-F1-022 (HIV-1)
# [5] = target: HIV-1 Env of isolate MGRM-F1-021 (HIV-1)
# [6] = target: HIV-1 Env of isolate 94UG103 (HIV-1)
# [7] = target: HIV-1 Env of isolate MGRM-AE-001 (HIV-1)
# [8] = target: HIV-1 Env of isolate 92UG037 (HIV-1)
# [9] = target: HIV-1 Env of isolate 92WR020 (HIV-1)
# [10] = target: HIV-1 Env of isolate 92WR024 (HIV-1)
# [11] = target: HIV-1 Env of isolate MG RM-D-020 (subtype D) (HIV-1)
# [12] = target: HIV-1 Env of isolate 97ZA012 (pseudovirus) (HIV-1 isolate 97ZA012, subtype C)
# [13] = target: HIV-1 Env of isolate MG RM-D-004 (subtype D) (HIV-1)
# [14] = target: HIV-1 TRO.11 Env (pseudovirus) (HIV-1)
# [15] = target: HIV-1 JR-CSF Env N197A (HIV-1 (isolate JR-CSF)) (UniProt P20871)
# [16] = target: HIV-1 Env of isolate MGRM-F1-010 (subtype F) (HIV-1)
# [17] = target: HIV-1 JR-CSF Env I165A (HIV-1 (isolate JR-CSF)) (UniProt P20871)
# [18] = target: HIV-1 NL43 Env (pseudovirus) (HIV-1)
# [19] = target: HIV-1 Env of isolate MGRM-C-005 (pseudovirus) (HIV-1 isolate MGRM-C-005, subtype C)
# [20] = target: HIV-1 Env of isolate MGRM-C-022 (pseudovirus) (HIV-1 isolate MGRM-C-022, subtype C)
# [21] = target: HIV-1 JR-CSF Env R166A (HIV-1 (isolate JR-CSF)) (UniProt P20871)
# [22] = target: HIV-1 SC422661.8 Env (pseudovirus) (HIV-1)
# [23] = target: HIV-1 MGRM-C-026 envelope glycoprotein (Env) on pseudovirus (HIV-1)
# [24] = target: HIV-1 92UG031 envelope glycoprotein (Env) (HIV-1)
# [25] = target: HIV-1 92RW021 envelope glycoprotein (Env) on pseudovirus (HIV-1)
# [26] = target: HIV-1 MGRM-C-028 envelope glycoprotein (Env) on pseudovirus (HIV-1)
# [27] = target: HIV-1 93MW959 envelope glycoprotein (Env) on pseudovirus (HIV-1)
# [28] = target: HIV-1 93UG077 envelope glycoprotein (Env) on pseudovirus (HIV-1)
Substance,neutralization IC50 [2],"IC50 (µg/mL), pseudovirus neutralization [11]",IC50 (µg/mL) neutralization [12],"IC50 (µg/mL), pseudovirus neutralization [13]","IC50, pseudovirus neutralization [14]",IC50 [4],"IC50 (µg/mL), pseudovirus neutralization [16]","IC50, pseudovirus neutralization [18]",IC50 (µg/mL) neutralization [19],IC50 (µg/mL) neutralization [20],"IC50, pseudovirus neutralization [22]",IC50 [5],"IC50 (ug/ml), neutralizing activity [23]","IC50 (ug/ml), neutralizing activity [26]",other results
VRC01 (antibody),0.0371 µg/mL,–,–,–,–,–,–,–,–,–,–,–,–,–,"IC50, pseudovirus neutralization [1]: > 50 µg/mL; IC50, pseudovirus neutralization [3]: > 50 µg/mL; IC50, pseudovirus neutralization [4]: 0.055 µg/mL; IC50, pseudovirus neutralization [5]: 0.039 µg/mL"
PGT-122 (antibody),–,–,–,–,–,–,–,–,–,–,–,–,–,–,"IC50 (µg/mL), pseudovirus neutralization [6]: 2.04 µg/mL; IC50 (µg/mL), pseudovirus neutralization [7]: > 50 µg/mL; IC50 (µg/mL), pseudovirus neutralization [8]: 0.068 µg/mL; IC50 (µg/mL), pseudovirus neutralization [9]: 0.009 µg/mL; IC50 (µg/mL), pseudovirus neutralization [10]: > 50 µg/mL"
5145_B14 (PGT-127) (antibody),–,0.015 µg/mL,> 50 µg/mL,> 50 µg/mL,0.079 µg/mL,> 50 µg/mL,> 50 µg/mL,> 50 µg/mL,0.57 µg/mL,0.41 µg/mL,36.7 µg/mL,> 50 µg/mL,–,–,Fold IC50 increase relative to wild-type [15]: 0.6 fold; Fold IC50 increase relative to wild-type [17]: 1.7 fold; Fold IC50 increase relative to wild-type [21]: 1.6 fold
4838_L06 (PGT-121) (antibody),–,0.01 µg/mL,0.002 µg/mL,> 50 µg/mL,0.008 µg/mL,0.104 µg/mL,0.016 µg/mL,> 50 µg/mL,0.015 µg/mL,0.015 µg/mL,0.098 µg/mL,0.099 µg/mL,–,–,–
PGT-143 (4980_N08) (antibody),0.423 µg/mL,–,–,–,–,–,–,–,–,–,–,–,–,–,–
PGT-142 (4995_E20) (antibody),0.362 µg/mL,–,–,–,–,–,–,–,–,–,–,–,–,–,–
PGT-121 (antibody),–,–,–,–,–,–,–,–,–,–,–,–,–,–,"IC50 (µg/mL), pseudovirus neutralization [6]: 2.52 µg/mL; Primary Neutralization Index (B cell culture well 4838 L06) [6]: 1.4; Primary Neutralization Index (B cell culture well 4873 E03) [6]: 0.8; IC50 (µg/mL), pseudovirus neutralization [7]: > 50 µg/mL; IC50 (µg/mL), pseudovirus neutralization [8]: 0.031 µg/mL; IC50 (µg/mL), pseudovirus neutralization [9]: 0.004 µg/mL; IC50 (µg/mL), pseudovirus neutralization [10]: > 50 µg/mL"
1496_C09 (PG9) (TCN-109) (antibody),0.166 µg/mL,–,–,–,–,–,–,–,–,–,–,–,0.113 µg/mL,0.121 µg/mL,"IC50 neutralization [23]: 0.113 µg/mL; IC50 [6]: 0.34 µg/mL; IC50 (µg/mL), pseudovirus neutralization [7]: 20.6 µg/mL; IC50 (µg/ml), pseudovirus neutralization [7]: 2.97 µg/mL; IC50 (µg/ml), pseudovirus neutralization [24]: 3.08 µg/mL; IC50 (µg/ml), pseudovirus neutralization [25]: 0.05 µg/mL; IC50 neutralization [26]: 0.121 µg/mL; IC80, neutralization [26]: 0.645 µg/mL; IC90, neutralization [26]: 1.65 µg/mL; IC95, neutralization [26]: 3.71 µg/mL; IC50 (µg/ml), pseudovirus neutralization [27]: 0.04 µg/mL"
5123_A06 (PGT-125) (antibody),–,> 50 µg/mL,2.46 µg/mL,0.371 µg/mL,0.111 µg/mL,> 50 µg/mL,> 50 µg/mL,> 50 µg/mL,2.09 µg/mL,1.23 µg/mL,30.1 µg/mL,> 50 µg/mL,0.0106 µg/mL,5.78 µg/mL,"neutralization IC50 [23]: 0.0106 µg/mL; neutralization IC80 [23]: 0.035 µg/mL; neutralization IC90 [23]: 0.0705 µg/mL; neutralization IC95 [23]: 0.134 µg/mL; Fold IC50 increase relative to wild-type [15]: 1 fold; Fold IC50 increase relative to wild-type [17]: 2.3 fold; Fold IC50 increase relative to wild-type [21]: 1.5 fold; IC50 (ug/ml), neutralizing activity [28]: 0.0262 µg/mL; neutralization IC50 [28]: 0.0262 µg/mL; neutralization IC80 [28]: 0.0926 µg/mL; neutralization IC90 [28]: 0.206 µg/mL; neutralization IC95 [28]: 0.487 µg/mL; neutralization IC50 [26]: 5.78 µg/mL; neutralization IC80 [26]: > 10 µg/mL; neutralization IC90 [26]: > 10 µg/mL; neutralization IC95 [26]: > 10 µg/mL"
PGT-144 (4970_K22) (antibody),> 50 µg/mL,–,–,–,–,–,–,–,–,–,–,–,–,–,–
5141_B17 (PGT-126) (antibody),–,0.023 µg/mL,0.042 µg/mL,> 50 µg/mL,0.041 µg/mL,> 50 µg/mL,> 50 µg/mL,> 50 µg/mL,0.298 µg/mL,0.96 µg/mL,0.119 µg/mL,> 50 µg/mL,0.0076 µg/mL,0.283 µg/mL,"Fold IC50 increase relative to wild-type [15]: 1.1 fold; Fold IC50 increase relative to wild-type [17]: 2.5 fold; IC50 [18]: > 10 µg/mL; IC80 [18]: > 10 µg/mL; IC90 [18]: > 10 µg/mL; IC95 [18]: > 10 µg/mL; Fold IC50 increase relative to wild-type [21]: 1 fold; IC50 (ug/ml), neutralizing activity [28]: 0.0256 µg/mL"
PGV04 (antibody),> 50 µg/mL,–,–,–,–,–,–,–,–,–,–,–,–,–,"IC50 (µg/mL), pseudovirus neutralization [1]: > 50 µg/mL; IC50 [6]: 0.202 µg/mL; IC50 (µg/mL), pseudovirus neutralization [7]: 0.063 µg/mL; IC50 (µg/mL), pseudovirus neutralization [3]: 17.5 µg/mL; IC50 [8]: 0.145 µg/mL"
4877_D15 (PGT-122) (antibody),–,0.007 µg/mL,0.004 µg/mL,> 50 µg/mL,0.011 µg/mL,0.277 µg/mL,0.024 µg/mL,> 50 µg/mL,0.027 µg/mL,0.012 µg/mL,0.103 µg/mL,2.3 µg/mL,0.0089 µg/mL,2.06 µg/mL,"IC50 (ug/ml), neutralizing activity [28]: 0.191 µg/mL"
PGT-141 (4964_G22; 4993_K13) (antibody),0.392 µg/mL,–,–,–,–,–,–,–,–,–,–,–,–,–,–
4858_P08 (PGT-123) (antibody),–,0.018 µg/mL,0.002 µg/mL,> 50 µg/mL,0.008 µg/mL,0.075 µg/mL,0.016 µg/mL,> 50 µg/mL,0.012 µg/mL,0.01 µg/mL,0.039 µg/mL,0.307 µg/mL,0.0031 µg/mL,0.443 µg/mL,"IC50, pseudovirus neutralization [23]: 0.0031 µg/mL; IC80, pseudovirus neutralization [23]: 0.0094 µg/mL; IC90 (pseudovirus neutralization) [23]: 0.0183 µg/mL; IC95, pseudovirus neutralization [23]: 0.0338 µg/mL; Fold IC50 increase relative to wild-type [15]: 1.4 fold; Fold IC50 increase relative to wild-type [17]: 2.2 fold; Fold IC50 increase relative to wild-type [21]: 0.9 fold; IC50 (ug/ml), neutralizing activity [28]: 0.0303 µg/mL; IC50, pseudovirus neutralization [28]: 0.0303 µg/mL; IC80, pseudovirus neutralization [28]: 0.143 µg/mL; IC90 (pseudovirus neutralization) [28]: 0.35 µg/mL; IC95, pseudovirus neutralization [28]: 0.78 µg/mL; IC50, pseudovirus neutralization [26]: 0.443 µg/mL; IC80, pseudovirus neutralization [26]: 2.8 µg/mL; IC90 (pseudovirus neutralization) [26]: 7.11 µg/mL; IC95, pseudovirus neutralization [26]: > 10 µg/mL"
